Data reported in EP4663762A2 (HongKong Bioheng Biotech Limited, dated 2025).

T1: Human TIGIT Protein, Fc Tag (ACRO) (human, UniProt Q495A1 22-141)
T1 construct: Bought reagent (ACRO); no catalogue number, no construct limits; also called Human TIGIT Protein, Fc TagTIGIT; not shown: Fc tag
T1 sequence (looked up): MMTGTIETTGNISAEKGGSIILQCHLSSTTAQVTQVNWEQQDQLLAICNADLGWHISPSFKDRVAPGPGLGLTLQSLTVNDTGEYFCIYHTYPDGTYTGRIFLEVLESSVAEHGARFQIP

T2: Human CTLA-4 / CD152 Protein, Fc Tag (ACRO) (human, UniProt P16410 36-161, limits assumed)
T2 construct: Bought reagent (ACRO); no catalogue number, no construct limits; not shown: Fc tag
T2 sequence (looked up): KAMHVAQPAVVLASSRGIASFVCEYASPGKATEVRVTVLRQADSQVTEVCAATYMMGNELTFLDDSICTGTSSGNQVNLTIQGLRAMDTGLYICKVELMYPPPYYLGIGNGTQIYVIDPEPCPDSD


Legend:
Assay in all cases: flow cytometry, soluble tagged antigen staining T cells that carry the construct
[1] = target: T1, Human TIGIT Protein, Fc Tag (ACRO)
[2] = target: T2, Human CTLA-4 / CD152 Protein, Fc Tag …
[3] = target: T3, Human NKG2A&CD94 Protein, Fc Tag (ACRO) (human, UniProt P26715 94-233; Q13241 32-179, limits assumed)
T3 construct: Bought heterodimer reagent (ACRO) with Fc tag
T3 sequence (P26715 94-233 limits assumed, chain 1 of 2): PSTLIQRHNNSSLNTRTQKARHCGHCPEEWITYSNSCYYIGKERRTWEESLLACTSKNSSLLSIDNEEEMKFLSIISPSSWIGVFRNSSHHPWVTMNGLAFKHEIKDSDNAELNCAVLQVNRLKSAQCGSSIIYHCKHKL
T3 sequence (Q13241 32-179 limits assumed, chain 2 of 2): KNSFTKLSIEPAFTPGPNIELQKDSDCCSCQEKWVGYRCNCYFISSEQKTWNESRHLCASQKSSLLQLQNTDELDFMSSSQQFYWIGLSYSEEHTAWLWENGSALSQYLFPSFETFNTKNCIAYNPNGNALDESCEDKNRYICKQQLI

[4] = target: T4, Human PD-1 / PDCD1 Protein, His Tag (ACRO) (human, UniProt Q15116 25-167)
T4 construct: Bought reagent (ACRO); no catalogue number, no construct limits; also called CD279; not shown: His tag
T4 sequence (Q15116 25-167 limits assumed): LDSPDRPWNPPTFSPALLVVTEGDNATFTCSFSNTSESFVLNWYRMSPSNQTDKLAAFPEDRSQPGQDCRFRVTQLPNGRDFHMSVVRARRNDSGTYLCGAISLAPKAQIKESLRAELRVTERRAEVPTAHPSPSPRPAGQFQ

| binding result [1] | binding result [2] | binding result [3] | binding result [4] | Binder |
| --- | --- | --- | --- | --- |
| binds | binds |  |  | immunosuppressive molecule of plasmid CAR19-C4TT (anti-CTLA4 scFv, linker, anti-TIGIT scFv, IgG4 hinge, CD28 transmembrane region, CD28 co-stimulatory domain), … (other, Membrane-anchored on transduced T cells that also express the anti-CD19 CAR) QVQLVESGGGVVQPGRSLRLSCAASGFTFSSYGMHWVRQAPGKGLEWVAVIWYDGSNKYYADSVKGRFTISRDNSKNTLYLQMNSLRAEDTAVFYCARAPNYIGAFDVWGQGTMVTVSSGGGGSGGGGSGGGGSDIQMTQSPSSLSASVGDRVTITCRASQGISSWLAWYQQKPEKAPKSLIYAASSLQSGVPSRFSGSGSGTDFTLTISSLQPEDFATYYCQQYNSYPPTFGQGTKVEIKGGGGSGGGGSGGGGSEVQLQQSGPGLVKPSQTLSLTCAISGDSVSSNSAAWNWIRQSPSRGLEWLGKTYYRFKWYSDYAVSVKGRITINPDTSKNQFSLQLNSVTPEDTAVFYCTRESTTYDLLAGPFDYWGQGTLVTVSSGGGGSGGGGSGGGGSDIVMTQSPDSLAVSLGERATINCKSSQTVLYSSNNKKYLAWYQQKPGQPPNLLIYWASTRESGVPDRFSGSGSGTDFTLTISSLQAEDVAVYYCQQYYSTPFTFGPGTKVEIKRESKYGPPCPPCPFWVLVVVGGVLACYSLLVTVAFIIFWVRSKRSRLLHSDYMNMTPRRPGPTRKHYQPYAPPRDFAAYRS |
|  |  | binds | binds | immunosuppressive molecule of plasmid CAR18.2-PA (anti-PD1 scFv, linker, anti-NKG2A scFv, IgG4 hinge, CD28 transmembrane region, CD28 co-stimulatory domain), … (other) QVQLVQSGVEVKKPGASVKVSCKASGYTFTNYYMYWVRQAPGQGLEWMGGINPSNGGTNFNEKFKNRVTLTTDSSTTTAYMELKSLQFDDTAVYYCARRDYRFDMGFDYWGQGTTVTVSSGGGGSGGGGSGGGGSEIVLTQSPATLSLSPGERATLSCRASKGVSTSGYSYLHWYQQKPGQAPRLLIYLASYLESGVPARFSGSGSGTDFTLTISSLEPEDFAVYYCQHSRDLPLTFGGGTKVEIKGGGGSGGGGSGGGGSEIVLTQSPATLSLSPGERATMTCSASSSVSSYIYWYQQKPGQAPRLLIYLTSNLASGIPARFSGSGSGTDFTLTISSLEPEDFATYYCQQWSGNPYTFGQGTKVEIKGSTSGSGKPGSGEGSTKGEVQLVESGGGLVKPGGSLRLSCAASGFTFSSYAMSWVRQAPGKGLEWVAEISSGGSYTYYPDSVKGRFTISRDNAKNSLYLQMNSLRAEDTAVYYCTRHGDYPRFFDVWGQGTLVTVSSESKYGPPCPPCPFWVLVVVGGVLACYSLLVTVAFIIFWVRSKRSRLLHSDYMNMTPRRPGPTRKHYQPYAPPRDFAAYRS |
|  | binds | binds |  | immunosuppressive molecule of plasmid CAR19-AC4 (anti-NKG2A scFv, linker, anti-CTLA4 scFv, IgG4 hinge, CD28 transmembrane region, CD28 co-stimulatory domain), … (other, Membrane-anchored on transduced T cells that also express the anti-CD19 CAR) EIVLTQSPATLSLSPGERATMTCSASSSVSSYIYWYQQKPGQAPRLLIYLTSNLASGIPARFSGSGSGTDFTLTISSLEPEDFATYYCQQWSGNPYTFGQGTKVEIKGSTSGSGKPGSGEGSTKGEVQLVESGGGLVKPGGSLRLSCAASGFTFSSYAMSWVRQAPGKGLEWVAEISSGGSYTYYPDSVKGRFTISRDNAKNSLYLQMNSLRAEDTAVYYCTRHGDYPRFFDVWGQGTLVTVSSGGGGSGGGGSGGGGSQVQLVESGGGVVQPGRSLRLSCAASGFTFSSYGMHWVRQAPGKGLEWVAVIWYDGSNKYYADSVKGRFTISRDNSKNTLYLQMNSLRAEDTAVFYCARAPNYIGAFDVWGQGTMVTVSSGGGGSGGGGSGGGGSDIQMTQSPSSLSASVGDRVTITCRASQGISSWLAWYQQKPEKAPKSLIYAASSLQSGVPSRFSGSGSGTDFTLTISSLQPEDFATYYCQQYNSYPPTFGQGTKVEIKESKYGPPCPPCPFWVLVVVGGVLACYSLLVTVAFIIFWVRSKRSRLLHSDYMNMTPRRPGPTRKHYQPYAPPRDFAAYRS |
